Entries after “also recorded” stand apart in the source; their conditions may differ.
Tested on: pCRE-Luc reporter (cyclic AMP response element)
Experiment: pCRE-Luc reporter assay of CREAP1 deletion fragments in Hela cells
Assay type: cell-based
Details: for Activity: Flag-CREAP1 deletion constructs co-transfected with pCRE-Luc in Hela cells, Dual-Glo Luciferase 40 hrs after transfection
Procedure: CREAP1 protein amino acids 1-170, 1-356, […], 1-580 and 170-650 are inserted into pFlag-CMV4 expression vector (Sigma, St. Louis, Mo.) by utilizing PCR strategy familiar to one of skill in the art. 10^4 Hela cells are split into each well of 96 well tissue culture plates. Cells are transfected 16 hours later with 100 ng of pCRE-Luc reporter construct, 30 ng of Renilla luciferase control plasmid together with 100 ng of pCMVSPORT6, pCMVSPORT-CREAP1 and different Flag-CREAP1 deletion fusion constructs respectively. Transfection is done with Fugene6 reagent (Roche Applied Biosciences) following the manufacturer's instructions. A Dual-Glo Luciferase assay (Promega) is conducted 40 hrs after transfection. Firefly luciferase counts are normalized to Renilla luciferase and plotted.
To dissect the functional domains within the CREAP1 molecule, CREAP1 protein fragments of amino acids 1-170, 1-356, 1-494, 1-580 and 170-650 were subcloned into pFlag-CMV4 vector by utilizing PCR based strategy and tested for function in a Dual Glo Luciferase assay as described above.

Molecule	Activity	reduction of functional activity of CREAP1 (K2 compared with K4 (removal of amino acids 356-580)) [fold]	Activity (listed as KS)
K2: CREAP1 fragment, amino acids 1-356, SEQ ID NO 33, Flag fusion (protein, Flag tag; human) MATSNNPRKFSEKIALHNQKQAEETAAFEEVMKDLSLTRAARLQLQKSQYLQLGPSRGQYYGGSLPNVNQIGSGTMDLPFQPSGFLGEALAAAPVSLTPFQSSGLDTSRTTRHHGLVDRVYRERGRLGSPHRRPLSVDKHGRQADSCPYGTMYLSPPADTSWRRTNSDSALHQSTMTPTQPESFSSGSQDVHQKRVLLLTVPGMEETTSEADKNLSKQAWDTKKTGSRPKSCEVPGINIFPSADQENTTALIPATHNTGGSLPDLTNIHFPSPLPTPLDPEEPTFPALSSSSSTGNLAANLTHLGIGGAGQGMSTPGSSPQHRPAGVSPLSLSTEARRQQASPTLSPLSPITQAVA	Inactive	10	
K5: CREAP1 fragment, amino acids 170-650, SEQ ID NO 36, Flag fusion (protein, Flag tag; human) ALHQSTMTPTQPESFSSGSQDVHQKRVLLLTVPGMEETTSEADKNLSKQAWDTKKTGSRPKSCEVPGINIFPSADQENTTALIPATHNTGGSLPDLTNIHFPSPLPTPLDPEEPTFPALSSSSSTGNLAANLTHLGIGGAGQGMSTPGSSPQHRPAGVSPLSLSTEARRQQASPTLSPLSPITQAVAMDALSLEQQLPYAFFTQAGSQQPPPQPQPPPPPPPASQQPPPPPPPQAPVRLPPGGPLLPSASLTRGPQPPPLAVTVPSSLPQSPPENPGQPSMGIDIASAPALQQYRTSAGSPANQSPTSPVSNQGFSPGSSPQHTSTLGSVFGDAYYEQQMAARQANALSHQLEQFNMMENAISSSSLYSPGSTLNYSQAAMMGLTGSHGSLPDSQQLGYASHSGIPNIILTVTGESPPSLSKELTSSLAGVGDVSFDSDSQFPLDELKIDPLTLDGLHMLNDPDMVLADPATEDTFRMDRL	lacked almost all stimulating activity		Inactive
K3: CREAP1 fragment, amino acids 1-494, SEQ ID NO 34, Flag fusion (protein, Flag tag; human) MATSNNPRKFSEKIALHNQKQAEETAAFEEVMKDLSLTRAARLQLQKSQYLQLGPSRGQYYGGSLPNVNQIGSGTMDLPFQPSGFLGEALAAAPVSLTPFQSSGLDTSRTTRHHGLVDRVYRERGRLGSPHRRPLSVDKHGRQADSCPYGTMYLSPPADTSWRRTNSDSALHQSTMTPTQPESFSSGSQDVHQKRVLLLTVPGMEETTSEADKNLSKQAWDTKKTGSRPKSCEVPGINIFPSADQENTTALIPATHNTGGSLPDLTNIHFPSPLPTPLDPEEPTFPALSSSSSTGNLAANLTHLGIGGAGQGMSTPGSSPQHRPAGVSPLSLSTEARRQQASPTLSPLSPITQAVAMDALSLEQQLPYAFFTQAGSQQPPPQPQPPPPPPPASQQPPPPPPPQAPVRLPPGGPLLPSASLTRGPQPPPLAVTVPSSLPQSPPENPGQPSMGIDIASAPALQQYRTSAGSPANQSPTSPVSNQGFSPGSSPQHTS	Partially Active		
K4: CREAP1 fragment, amino acids 1-580, SEQ ID NO 35, Flag fusion (protein, Flag tag; human) MATSNNPRKFSEKIALHNQKQAEETAAFEEVMKDLSLTRAARLQLQKSQYLQLGPSRGQYYGGSLPNVNQIGSGTMDLPFQPSGFLGEALAAAPVSLTPFQSSGLDTSRTTRHHGLVDRVYRERGRLGSPHRRPLSVDKHGRQADSCPYGTMYLSPPADTSWRRTNSDSALHQSTMTPTQPESFSSGSQDVHQKRVLLLTVPGMEETTSEADKNLSKQAWDTKKTGSRPKSCEVPGINIFPSADQENTTALIPATHNTGGSLPDLTNIHFPSPLPTPLDPEEPTFPALSSSSSTGNLAANLTHLGIGGAGQGMSTPGSSPQHRPAGVSPLSLSTEARRQQASPTLSPLSPITQAVAMDALSLEQQLPYAFFTQAGSQQPPPQPQPPPPPPPASQQPPPPPPPQAPVRLPPGGPLLPSASLTRGPQPPPLAVTVPSSLPQSPPENPGQPSMGIDIASAPALQQYRTSAGSPANQSPTSPVSNQGFSPGSSPQHTSTLGSVFGDAYYEQQMAARQANALSHQLEQFNMMENAISSSSLYSPGSTLNYSQAAMMGLTGSHGSLPDSQQLGYASHSGIPNIILT	retains almost all wild type activity; also recorded: Fully active		

Reference: patent publication US20070036810A1, “Cyclic amp response element activator proteins and uses related thereto” (priority 2003, published 2007)
